Laboratory results reported in patent US20040018561.

B1: MMP-2 (protein)
chain: YNFFPRKPKWDKNQITYRIIGYTPDLDPETVDDAFARAFQVWSDVTPLRFSRIHDGEADIMINFGRWEHGDGYPFDGKDGLLAHAFAPGTGVGGDSHFDDDELWTLGEGQVVRVKYGNADGEYCKFPFLFNGKEYNSCTDTGRSDGFLWCSTTYNFEKDGKYGFCPHEALFTMGGNAEGQPCKFPFRFQGTSYDSCTTEGRTDGYRWCGTTEDYDRDKKYGFCPETAMSTVGGNSEGAPCVFPFTFLGNKYESCTSAGRSDGKMWCATTANYDDDRKWGFCPDQGYSLFLVAAHEFGHAMGLEHSQDPGALMAPIYTYTKNFRLSQDDIKGIQELYGASPDIDLGTGPTPTLGPVTPEICKQDIVFDGIAQIRGEIFFFKDRFIWRTVTPRDKPMGPLLVATFWPELPEKIDAVYEAPQEEKAVFFAGNEYWIYSASTLERGYPKPLTSLGLPPDVQRVDAAFNWSKNKKTYIFAGDKFWRYNEVKKKMDPGFPKLIADAWNAIPDNLDAVVDLQGGGHSYFFKGAYYLKLENQSLKSVKFGSIKSDWLGC
B2: MMP-7 (protein)
chain: YSLFPNSPKWTSKVVTYRIVSYTRDLPHITVDRLVSKALNMWGKEIPLHFRKVVWGTADIMIGFARGAHGDSYPFDGPGNTLAHAFAPGTGLGGDAHFDEDERWTDGSSLGINFLYAATHELGHSLGMGHSSDPNAVMYPTYGNGDPQNFKLSQDDIKGIQKLYGKRSNSRKK
B3: MMP-1 (protein)
chain: FVLTEGNPRWEQTHLTYRIENYTPDLPRADVDHAIEKAFQLWSNVTPLTFTKVSEGQADIMISFVRGDHRDNSPFDGPGGNLAHAFQPGPGIGGDAHFDEDERWTNNFREYNLHRVAAHELGHSLGLSHSTDIGALMYPSYTFSGDVQLAQDDIDGIQAIYGRSQNPVQPIGPQTPKACDSKLTFDAITTIRGEVMFFKDRFYMRTNPFYPEVELNFISVFWPQLPNGLEAAYEFADRDEVRFFKGNKYWAVQGQNVLHGYPKDIYSSFGFPRTVKHIDAALSEENTGKTYFFVANKYWRYDEYKRSMDPGYPKMIAHDFPGIGHKVDAVFMKDGFFYFFHGTRQYKFDPKTKRILTLQKANSWFNCRKN

Legend:
[1] = target: N-2-[(7-methoxy-2-oxo-2H-chromen-4-yl)acetyl]-L-arginyl-L-prolyl-L-leucylglycyl-6-(benzyloxy)-L-norleucyl-3-[(2,4-dinitrophenyl)amino]-L-alanyl-L-alanyl-L-arginyl-L-alpha-glutamyl-L-argininamide
[2] = target: N-2-[(7-methoxy-2-oxo-2H-chromen-4-yl)acetyl]-D-arginyl-L-prolyl-L-leucylglycyl-L-leucyl-3-[(2,4-dinitrophenyl)amino]-L-alanyl-L-alanyl-D-arginyl-D-alpha-glutamyl-D-argininamide
[3] = target: N-2-[(7-methoxy-2-oxo-2H-chromen-4-yl)acetyl]-D-arginyl-L-prolyl-L-leucylglycyl-6-(benzyloxy)-L-norleucyl-3-[(2,4-dinitrophenyl)amino]-L-alanyl-L-alanyl-D-arginyl-D-alpha-glutamyl-D-argininamide
[4] = target: N-2-[(7-methoxy-2-oxo-2H-chromen-4-yl)acetyl]-L-arginyl-L-prolyl-L-leucylglycyl-L-leucyl-3-[(2,4-dinitrophenyl)amino]-L-alanyl-L-alanyl-D-arginyl-D-alpha-glutamyl-D-argininamide
[5] = target: N-2-[(7-methoxy-2-oxo-2H-chromen-4-yl)acetyl]-L-arginyl-L-prolyl-L-leucylglycyl-L-leucyl-3-[(2,4-dinitrophenyl)amino]-L-alanyl-L-alanyl-L-arginyl-L-alpha-glutamyl-L-argininamide
[6] = target: N-2-[(7-methoxy-2-oxo-2H-chromen-4-yl)acetyl]-D-arginyl-L-prolyl-L-leucylglycyl-6-phenoxy-L-norleucyl-3-[(2,4-dinitrophenyl)amino]-L-alanyl-L-alanyl-D-arginyl-D-alpha-glutamyl-D-argininamide

| Protein | Km [1] | kcat/Km [1] | Km [2] | kcat/Km [2] | Km [3] | kcat/Km [3] | Km [4] | kcat/Km [4] | Km [5] | kcat/Km [5] | Km [6] | kcat/Km [6] |
| --- | --- | --- | --- | --- | --- | --- | --- | --- | --- | --- | --- | --- |
| B1 | 8.3 µM | 1.34e+06 M⁻¹ s⁻¹ | 9.9 µM | 178000 M⁻¹ s⁻¹ | 3.7 µM | 600000 M⁻¹ s⁻¹ | 16.3 µM | 681000 M⁻¹ s⁻¹ | 16.5 µM | 565000 M⁻¹ s⁻¹ | 3.6 µM | 1.96e+06 M⁻¹ s⁻¹ |
| B2 | – | 0 M⁻¹ s⁻¹ | 81.2 µM | 22000 M⁻¹ s⁻¹ | 94.7 µM | 2980 M⁻¹ s⁻¹ | 25 µM | 120000 M⁻¹ s⁻¹ | 26.4 µM | 142000 M⁻¹ s⁻¹ | – | 0 M⁻¹ s⁻¹ |
| B3 | – | 0 M⁻¹ s⁻¹ | 49 µM | 57000 M⁻¹ s⁻¹ | 35.1 µM | 3600 M⁻¹ s⁻¹ | 17.3 µM | 176000 M⁻¹ s⁻¹ | 16 µM | 255000 M⁻¹ s⁻¹ | – | 0 M⁻¹ s⁻¹ |
